Laboratory results taken from publication PMC7007523 (Proceedings of the National Academy of Sciences of the …, 2020).
Values belong to the molecule of their own block, whether it stands above or below them. Non-standard residues stand in square brackets, D forms with d. No end group written: not given here. Hyp = O=C(O)[C@@H]1C[C@@H](O)CN1

What was measured:
FLS2 = test: GCI, SERK3 binding to FLS2; design: species or system Arabidopsis
EFR = test: GCI, SERK3 binding to EFR; design: species or system Arabidopsis
[1] = biological target: GSO2 in the presence of CIF3; test: GCI coreceptor assay, SERK1 and SERK3 vs GSO2 in the presence of CIF3; design: species or system Arabidopsis; conditions: read-out: Kd of SERK binding to GSO2
[2] = tested on: GSO1/SGN3 ectodomain (SGN3^WT) - CIF peptide; conditions: CIF-dependent interaction
[3] = biological target: FLS2 ectodomain (isolated) (Arabidopsis) (UniProt Q9FL28); test: grating-coupled interferometry
FLS2 ectodomain (isolated) (Arabidopsis), sequence (Q9FL28 24-806): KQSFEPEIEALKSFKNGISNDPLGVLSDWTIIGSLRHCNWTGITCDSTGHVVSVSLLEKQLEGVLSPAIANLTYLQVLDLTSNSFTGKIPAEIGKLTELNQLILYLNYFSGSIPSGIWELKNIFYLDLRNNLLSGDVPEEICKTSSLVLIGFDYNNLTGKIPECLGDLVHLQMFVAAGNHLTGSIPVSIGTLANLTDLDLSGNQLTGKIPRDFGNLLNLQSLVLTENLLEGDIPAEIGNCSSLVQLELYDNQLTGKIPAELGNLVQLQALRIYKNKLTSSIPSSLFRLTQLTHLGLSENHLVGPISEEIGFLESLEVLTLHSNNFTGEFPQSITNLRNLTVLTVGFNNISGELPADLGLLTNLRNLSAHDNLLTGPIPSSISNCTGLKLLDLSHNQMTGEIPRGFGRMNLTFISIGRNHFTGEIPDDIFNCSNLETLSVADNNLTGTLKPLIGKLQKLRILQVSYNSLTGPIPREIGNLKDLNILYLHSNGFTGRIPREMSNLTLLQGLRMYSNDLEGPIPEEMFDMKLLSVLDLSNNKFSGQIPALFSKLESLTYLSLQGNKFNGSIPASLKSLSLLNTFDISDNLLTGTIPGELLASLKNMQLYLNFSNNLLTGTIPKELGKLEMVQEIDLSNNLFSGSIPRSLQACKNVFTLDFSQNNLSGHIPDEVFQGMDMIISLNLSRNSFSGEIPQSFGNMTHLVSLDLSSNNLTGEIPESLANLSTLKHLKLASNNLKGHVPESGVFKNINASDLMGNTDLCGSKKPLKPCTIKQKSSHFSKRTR

[4] = biological target: BAM1 ectodomain (Arabidopsis) (UniProt O49545); test: grating-coupled interferometry
BAM1 ectodomain (Arabidopsis), sequence (O49545 20-640): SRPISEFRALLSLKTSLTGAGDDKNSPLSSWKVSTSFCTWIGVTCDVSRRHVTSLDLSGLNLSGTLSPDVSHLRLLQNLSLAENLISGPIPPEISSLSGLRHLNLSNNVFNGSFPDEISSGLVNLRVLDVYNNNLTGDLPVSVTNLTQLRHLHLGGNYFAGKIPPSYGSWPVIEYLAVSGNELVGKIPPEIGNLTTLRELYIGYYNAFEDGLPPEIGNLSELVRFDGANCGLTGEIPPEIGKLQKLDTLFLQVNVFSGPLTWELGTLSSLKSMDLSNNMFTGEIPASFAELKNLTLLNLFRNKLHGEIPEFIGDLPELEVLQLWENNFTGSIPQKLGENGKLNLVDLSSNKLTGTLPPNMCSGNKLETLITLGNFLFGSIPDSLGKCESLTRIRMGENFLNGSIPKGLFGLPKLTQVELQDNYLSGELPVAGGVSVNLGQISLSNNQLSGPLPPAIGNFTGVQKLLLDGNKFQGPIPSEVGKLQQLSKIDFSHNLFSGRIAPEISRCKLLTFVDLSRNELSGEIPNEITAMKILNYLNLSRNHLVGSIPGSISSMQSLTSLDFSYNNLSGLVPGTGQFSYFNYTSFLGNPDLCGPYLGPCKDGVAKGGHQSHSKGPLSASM

[5] = biological target: PEPR1 ectodomain (Arabidopsis) (UniProt Q9SSL9); test: grating-coupled interferometry
PEPR1 ectodomain (Arabidopsis), sequence (Q9SSL9 29-769): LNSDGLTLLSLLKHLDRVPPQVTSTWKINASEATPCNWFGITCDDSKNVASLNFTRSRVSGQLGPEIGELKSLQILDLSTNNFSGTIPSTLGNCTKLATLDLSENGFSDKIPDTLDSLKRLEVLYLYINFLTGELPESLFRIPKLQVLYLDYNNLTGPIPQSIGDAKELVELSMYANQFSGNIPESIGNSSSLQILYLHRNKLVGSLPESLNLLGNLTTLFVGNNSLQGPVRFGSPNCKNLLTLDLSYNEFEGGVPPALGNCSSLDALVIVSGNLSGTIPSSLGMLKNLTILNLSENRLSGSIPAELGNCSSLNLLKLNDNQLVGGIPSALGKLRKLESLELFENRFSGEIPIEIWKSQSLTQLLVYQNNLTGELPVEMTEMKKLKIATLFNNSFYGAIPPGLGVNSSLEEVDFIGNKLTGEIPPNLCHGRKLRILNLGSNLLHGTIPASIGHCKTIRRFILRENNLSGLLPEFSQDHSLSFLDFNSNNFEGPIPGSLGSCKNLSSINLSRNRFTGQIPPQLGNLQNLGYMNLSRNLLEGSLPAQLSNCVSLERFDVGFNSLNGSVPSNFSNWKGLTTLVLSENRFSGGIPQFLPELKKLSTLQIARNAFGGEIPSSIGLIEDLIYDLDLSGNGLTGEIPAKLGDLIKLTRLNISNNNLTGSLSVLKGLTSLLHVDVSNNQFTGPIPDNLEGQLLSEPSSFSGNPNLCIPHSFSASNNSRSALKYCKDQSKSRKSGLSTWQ

GSO1/SGN3 = test: Binding of CIF2^Hyp69,71 to GSO1/SGN3; design: species or system Arabidopsis; conditions: SI Appendix, Fig. S6
[6] = biological target: GSO2 ectodomain (recombinant) (Arabidopsis) (UniProt Q9FIZ3); test: grating-coupled interferometry
GSO2 ectodomain (recombinant) (Arabidopsis), sequence (Q9FIZ3 23-876): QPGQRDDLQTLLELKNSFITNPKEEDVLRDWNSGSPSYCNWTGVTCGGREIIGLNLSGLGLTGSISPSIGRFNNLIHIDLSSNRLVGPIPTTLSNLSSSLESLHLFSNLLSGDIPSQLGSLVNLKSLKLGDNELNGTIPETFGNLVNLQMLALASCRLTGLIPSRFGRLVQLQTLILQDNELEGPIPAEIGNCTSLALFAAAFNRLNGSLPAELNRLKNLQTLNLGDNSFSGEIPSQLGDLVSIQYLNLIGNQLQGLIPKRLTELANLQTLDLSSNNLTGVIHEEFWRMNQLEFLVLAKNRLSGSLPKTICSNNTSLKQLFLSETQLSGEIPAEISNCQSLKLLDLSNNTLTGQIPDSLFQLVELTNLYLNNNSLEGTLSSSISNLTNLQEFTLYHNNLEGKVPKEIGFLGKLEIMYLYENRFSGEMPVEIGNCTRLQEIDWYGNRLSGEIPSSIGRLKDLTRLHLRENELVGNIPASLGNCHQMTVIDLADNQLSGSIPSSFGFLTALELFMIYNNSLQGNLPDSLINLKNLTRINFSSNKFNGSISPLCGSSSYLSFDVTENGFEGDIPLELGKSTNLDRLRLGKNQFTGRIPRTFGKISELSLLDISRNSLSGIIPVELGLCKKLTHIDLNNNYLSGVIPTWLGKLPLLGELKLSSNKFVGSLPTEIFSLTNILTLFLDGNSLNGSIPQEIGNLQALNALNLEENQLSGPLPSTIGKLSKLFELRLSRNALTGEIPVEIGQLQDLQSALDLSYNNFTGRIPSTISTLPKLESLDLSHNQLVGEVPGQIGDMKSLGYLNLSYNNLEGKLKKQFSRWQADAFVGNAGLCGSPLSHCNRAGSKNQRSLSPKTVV

[7] = biological target: GSO1/SGN3 ectodomain (residues 19 to 870) (Arabidopsis) (UniProt C0LGQ5); test: grating-coupled interferometry
[8] = biological target: GSO1/SGN3 ectodomain (residues 19 to 870) (Arabidopsis) (UniProt C0LGQ5); test: ITC
[9] = biological target: SGN3^3xmut ectodomain (Tyr416, Phe438 and Tyr440 replaced by alanine) (Arabidopsis) (UniProt C0LGQ5); test: grating-coupled interferometry
[10] = biological target: FLS2 ectodomain (isolated) (Arabidopsis, UniProt Q9FL28 24-806); test: grating-coupled interferometry
FLS2 ectodomain (isolated), sequence (Q9FL28 24-806): as the sequence (Q9FL28 24-806) above

[11] = biological target: T1, GSO1/SGN3 ectodomain (SGN3^WT) - CIF peptide (Arabidopsis thaliana, UniProt C0LGQ5); conditions: in the absence of CIF peptide
T1 sequence (C0LGQ5 19-870): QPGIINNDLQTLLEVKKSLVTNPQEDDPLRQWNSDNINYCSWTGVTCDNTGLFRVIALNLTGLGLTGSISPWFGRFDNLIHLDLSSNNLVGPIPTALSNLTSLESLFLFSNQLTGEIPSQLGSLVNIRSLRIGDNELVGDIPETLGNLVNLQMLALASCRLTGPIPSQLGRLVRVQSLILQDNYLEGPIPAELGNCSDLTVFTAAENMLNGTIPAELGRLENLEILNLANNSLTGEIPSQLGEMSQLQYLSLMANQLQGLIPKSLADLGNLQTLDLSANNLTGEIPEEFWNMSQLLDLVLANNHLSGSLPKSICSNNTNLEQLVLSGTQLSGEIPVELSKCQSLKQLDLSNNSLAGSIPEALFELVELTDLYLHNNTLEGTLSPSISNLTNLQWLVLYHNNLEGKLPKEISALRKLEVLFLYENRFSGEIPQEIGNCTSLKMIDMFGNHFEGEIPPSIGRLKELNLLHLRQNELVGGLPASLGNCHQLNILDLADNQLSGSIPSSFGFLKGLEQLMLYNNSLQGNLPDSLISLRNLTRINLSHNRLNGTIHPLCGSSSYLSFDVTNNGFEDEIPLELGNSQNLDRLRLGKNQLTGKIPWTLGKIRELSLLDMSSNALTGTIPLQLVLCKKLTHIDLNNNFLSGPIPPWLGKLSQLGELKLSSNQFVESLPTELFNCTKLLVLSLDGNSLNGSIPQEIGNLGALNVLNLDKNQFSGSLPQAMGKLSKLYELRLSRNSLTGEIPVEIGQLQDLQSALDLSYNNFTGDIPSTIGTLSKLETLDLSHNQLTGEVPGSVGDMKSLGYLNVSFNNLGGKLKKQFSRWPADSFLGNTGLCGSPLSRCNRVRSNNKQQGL

- affinity of SERK3 binding (FLS2): low micromolar affinity
- affinity of SERK3 binding (EFR): low micromolar affinity
- Kd [1]: 20 to 80 nM
Molecule: SERK3: recombinant LRR ectodomain of the SERK3 coreceptor kinase
- interaction of coreceptor candidate with GSO1/SGN3 in GCI assays [2]: interacts

- Kd [5]: 100 nM
Molecule: PEP1 danger signal peptide (23 amino acids)

- Kd [6]: 4 nM
- Kd [7]: 4 nM
Molecule: CIF3 peptide, tyrosine sulfated (CIF3^WT)

- Kd [5]: 20000 nM
Molecule: PEP2 danger signal peptide (23 amino acids) (from UniProt Q9LV88 74-109)

- Kd [8]: 300 nM
- stoichiometry N [8]: 1
Molecule: CIF4 peptide (wild type)

- binding result [10]: binds
B1: SERK3 LRR ectodomain (receptor, Arabidopsis, UniProt Q94F62 26-225, looked up)
chain: NAEGDALSALKNSLADPNKVLQSWDATLVTPCTWFHVTCNSDNSVTRVDLGNANLSGQLVMQLGQLPNLQYLELYSNNITGTIPEQLGNLTELVSLDLYLNNLSGPIPSTLGRLKKLRFLRLNNNSLSGEIPRSLTAVLTLQVLDLSNNPLTGDIPVNGSFSLFTPISFANTKLTPLPASPPPPISPTPPSPAGSNRITG

Further lines, the molecule ahead of its results:

Molecule: flg22 immune elicitor peptide
- Kd [3]: 1500 nM

Molecule: CLE9 peptide (12 amino acids)
- Kd [4]: 1 nM

Molecule: CIF2^Hyp69,71: CIF2 with hydroxyprolines at positions 69 and 71 (GRSSILIYSQEDDHPEVVERRIHEHERILRMNSRDYGHSS[Hyp]K[Hyp]KLVRPPFKLIPN)
- dissociation constant compared with CIF2^WT (GSO1/SGN3): very similar dissociation constants

Molecule: CIF2 peptide, synthetic sTyr-containing (CIF2^WT) (from UniProt O65684 29-83)
- Kd [8]: 40 nM
- stoichiometry N [8]: 1
- Kd [7]: 2 nM
- fold reduction of CIF2 binding against wild-type GSO1/SGN3 [9]: 10 fold

B2: SERK1: recombinant LRR ectodomain of the SERK1 coreceptor kinase (residues 24 to 213) (protein)
chain: ASANLEGDALHTLRVTLVDPNNVLQSWDPTLVNPCTWFHVTCNNENSVIRVDLGNAELSGHLVPELGVLKNLQYLELYSNNITGPIPSNLGNLTNLVSLDLYLNSFSGPIPESLGKLSKLRFLRLNNNSLTGSIPMSLTNITTLQVLDLSNNRLSGSVPDNGSFSLFTPISFANNLDLCGPVTSHPCPGS
- Kd [1]: 20 to 80 nM
- SERK1 binding to SGN3 [11]: No SERK1 binding
